# In US20240383959A1, “CELL-FREE METHODS AND COMPOSITIONS COMPRISING TAGLESS THERAPEUTIC HORMONES” (Northwestern University, priority 2021, published 2024):
# Legend:
# [1] = target: T1, extracellular domain of PTH receptor (Homo sapiens, UniProt Q03431); test: AlphaLISA cross-titration of PTH and PTH receptor; assay type: binding; settings: sFLAG-tagged PTH, anti-FLAG donor beads; His-tagged PTH receptor, nickel chelate acceptor beads
# T1 construct: purchased Abcam ab182670
# T1 sequence (Q03431 27-186 limits assumed): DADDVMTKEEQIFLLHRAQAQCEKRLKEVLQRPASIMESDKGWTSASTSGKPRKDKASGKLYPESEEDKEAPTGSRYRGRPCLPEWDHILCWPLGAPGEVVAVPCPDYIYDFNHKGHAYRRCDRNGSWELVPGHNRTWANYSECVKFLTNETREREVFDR
# [2] = target: T2, parathyroid hormone receptor (Homo sapiens, UniProt Q03431); test: Biolayer interferometry (BLI) of PTH binding to its receptor; settings: undiluted CFPS PTH or 67 μg/ml commercial PTH; with and without receptor on tip
# T2 construct: purchased R&D systems 5709-PR-50
# T2 sequence (Q03431 27-186 limits assumed): T1 sequence (Q03431 27-186 limits assumed)
# Text: In fact, the entire sequences except for the two N-terminal and C-terminal amino acids were confirmed for both GLP-1 mutant and GLP-1 in these experiments. The peptide hormones are cleaved precisely at the C-terminus of SUMO to give tagless hormones as expected. […] There was low signal relative to GH, however, the binding signal is still more than 3 standard deviations above the background noise. Unfortunately, this binding was unable to be confirmed with BLI, likely because the hormone is too small (3.5 kDa) to generate enough of a wavelength shift to be detected by the instrument (FIG. 9f). […] Full-length parathyroid hormone was detected in the deconvoluted LC-MS spectra with an observed mass of 9424.66 Da, which matches the theoretical mass of 9424.73 Da with an error of 7.4 ppm (FIG. 10a). PTH was also detected by two orthogonal antibodies in a commercial sandwich ELISA assay (Biomatik EKF58372). The concentration was determined to be 24±11 μg/ml with 4 dilutions of a single sample (FIG. 10a). This value is approximately 80% of that detected by BCA and densitometry. […] Black lines represent a commercially purchased positive control PTH (OriGene SA6052) where there is no receptor immobilized on the lightly shaded line and receptor immobilized with the dark line. […]
# [3] = system: Escherichia coli MG1655; test: Plate-based growth inhibition assay; assay type: cell-based; settings: overnight incubation, 384 well plate, two replicates; peptide purified from CFPS
# Procedure: Antimicrobial peptide activity was tested with a plate-based growth inhibition study. A 5 ml culture of Escherichia coli MG1655 was grown overnight on Luria Broth (LB) from a glycerol stock. On the day of the assay, the overnight culture was diluted to an OD of 0.08 in LB and then grown to mid log phase (OD ˜0.5). The mid log phase cells were diluted to […] (assuming 1 OD=8×10^8 cells/ml) into LB with 0.005% Antifoam 204 (Sigma A6426) and 1 mg/ml BSA (Sigma-Aldrich A2153-100G). 5 μl of these cells were added to 10 μl of purified antimicrobial peptide in a UV-sterilized 384 well, clear bottom plate (Greiner Bio-One 781096). Positive controls included 10 μl of the wash buffer the hormones were dissolved in and 10 μl of a no DNA control where no DNA template was added to the CFPS reactions, but the sample was treated exactly like the other antimicrobial peptide samples. Negative controls included a final kanamycin concentration of 50 μg/ml and adding 10 μl of the LB with 0.005% Antifoam 204 and 1 mg/ml BSA without E. coli cells. The plate was sealed with a microseal B adhesive (Bio-Rad MSB1001) and incubated in a plate reader with continuous shaking for 18 hr at 37° C. and absorbance measurements at 600 nm every 15 min.
PTH binding to extracellular domain of its receptor (BLI) [2],Substance,PTH interaction with extracellular domain of its receptor (AlphaLISA) [1],Growth of E. coli MG1655 [3]
unable to detect PTH binding,Parathyroid Hormone [PTH],very low signal that has a typical binding pattern,
,Melittin,,inhibiting growth of the bacteria
high background binding,positive control PTH: commercially purchased positive control PTH (OriGene SA6052) [reference compound],,
